Among the data in PMC9060471 (2022) are EC50 values, retold here.

A word on the EC50: it is the concentration that produces a half-maximal response. The low end stands for greater potency, the high end for weaker potency.

For this assay, the target named is 6xHis-TLX ligand-binding domain (UniProt Q9Y466 155-385).
6xHis-TLX ligand-binding domain, sequence (Q9Y466 155-385): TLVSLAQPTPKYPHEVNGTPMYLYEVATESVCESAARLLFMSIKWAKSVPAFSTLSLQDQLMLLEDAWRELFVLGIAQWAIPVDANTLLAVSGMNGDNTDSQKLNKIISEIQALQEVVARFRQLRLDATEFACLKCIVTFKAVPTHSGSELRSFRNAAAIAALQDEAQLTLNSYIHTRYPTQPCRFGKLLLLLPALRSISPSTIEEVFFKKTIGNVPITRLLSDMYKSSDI

B1: NCOA1-II peptide (competitor in the ALPHA competition experiment) (peptide)
chain: LTERHKILHRLLQEGSPSD
Consider B1, for which a half-maximal effect (EC50) was put at 3.3 µM.
